B1: GST-tagged MLL3 Win-SET domain, MLL3(4689-4911), R4710A (protein)
chain: FRYGRNPLMELPLAVNPTGCAASEPKMSAHVKRFVLRPHTLNSTSTSKSFQSTVTGELNAPYSKQFVHSKSSQYRKMKTEWKSNVYLARSRIQGLGLYAARDIEKHTMVIEYIGTIIRNEVANRKEKLYESQNRGVYMFRMDNDHVIDATLTGGPARYINHSCAPNCVAEVVTFERGHKIIISSSRRIQKGEELCYDYKFDFEDDQHKIPCHCGAVNCRKWMN
B2: GST-tagged SETd1B Win-SET domain, Setd1B(1727-1966), R1748A (protein)
chain: LSSAKKKKRDDGIREHVTGCAASEGFYTIDKKDKLRYLNSSRASTDEPPADTQGMSIPAQPHASTRAGSERRSEQRRLLSSFTGSCDSDLLKFNQLKFRKKKLKFCKSHIHDWGLFAMEPIAADEMVIEYVGQNIRQVIADMREKRYEDEGIGSSYMFRVDHDTIIDATKCGNFARFINHSCNPNCYAKVITVESQKKIVIYSKQHINVNEEITYDYKFPIEDVKIPCLCGSENCRGTLN

Target: purified recombinant full-length WDR5, P61964

Row | Protein | core complex methyltransferase activity, H3K4me0 peptide, mutant against wild type | core complex methyltransferase activity, H3K4me1 and H3K4me2 peptides, mutant against wild type
1 | B1 | approximately 2-fold more activity than the wild-type MLL3 core complex | –
2 | B2 | – | showed similar amounts of activity compared to that of their wild-type counterparts
